Test results published in the nanobody polyreactivity screen of Harvey et al. (2022).

test: yeast display, Sf9 membrane polyspecificity reagent, FACS + sequencing; frameworks hold sequencing errors
Procedure, shortened: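 Sorting gates, low and high (top ~1%), were placed on anti-HA fluorescence to track expression and on streptavidin fluorescence to track reagent binding. A clone's polyreactivity label is taken from the gate it came out of. The reagent was 10% biotinylated, detergent-solubilized Sf9 membrane, applied for 1 hour at 4 °C to galactose-induced yeast display cells.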

Sequence | polyreactivity (PSR sort gate)
QDQHVESGGGLVQAGGSLRLSCAASGSTFTGYDMGRYRQAPGKERELVAAISWNGGSTYYADSVKGRFTISRDNAKNTVYLQMNSLKPEDTAVYYCAKVTLTHSRFRYYYWGQGTQVTVSS | high polyreactivity
QDQHVESGGGLVQAGGSLRLSCAASRRTIDLYAMGWYRQAPGKERELVAAITKGGGSTYYADSVKGRFTISRDNATNTVYLQMNSLKPEDTAVFYCAARKYKRIYRISSGIGYYWGQGTQVTVSS | high polyreactivity
QDQHVESGGGLVQAGGSLRLSCDASGFIFSYYTMGCYRQAPGKERELVAAIRSSGGSTYADSVKGRFTISRDNAKNTVYLQMTSLKPEDTAVYYCAAVQTWRWVYARDYWGQGTQVTVSS | high polyreactivity
QDQHVESGGGLVQARGSLRLSCAASGRIFANKAMGRYRQAPGKERELVAAISRSGVSTYYADSVKGRFTISRDNAKNTVYLQMNSLKPEDSAVYYCAARWRSGFTSGDDWGQGTQVTVSA | low polyreactivity
QDQHVESGGGLVQARGTLRLSCAASGFTFYHYAMGWSRQAPGTERELVAGISHRGASTYYADSVKGRFTISRDNAKNTVYLQMNSLKPEDTAVYYCNAYRPYRNHALIGDGYWGQGTQVTVSS | high polyreactivity
QDQHVESVGGLVQAGGGLPLSCAASGRTFTYNAMGWYRQPPGKERELVAAITSGGTTNYADSVKGRFTISRDNAKNTVYLQMNSLKQEDTAVYYCAARRVYYSYRRYYYWGQGTQVTVSS | low polyreactivity
QDQHVETGGGLVQAGGSLRLSCAASGSIFFLYMGWYRKAHGKETELVATISSGGSTNYADSVMGRFTISRDNAKHTVYLQMNSLKPVATAVYYFNARGSERLDTYSLYDYWGQGTQVTVSS | low polyreactivity
QDQLEDSGGGLVQAGGSLRLSCAASGRTFTLYAMGWSRQAPGKERELVASISRSGGSTYYADSVKGRFTISRDNAKNTVYLQMNSVKPEDTAVDYCAARRFAWLFIYDYWGQGTQVTVSS | high polyreactivity
QDQLEESGGCLVQAGGSLRLSCAASGRIFYGYVMRWYRQAPGKERELVAAINQSGTSTYYADSVKGRFTISRDYAKNTVYLQMNSLKPEDTAVYYCAKDWAYRRHWVGFYYWGQGTQVTVSS | low polyreactivity
QDQLEESGGGLVQAGGSLRLSCAASGRNFYGYVMGWYRQAPGKERELVAAISSGGSTYYADSVKGRFTISRDNAKNTVYLQMNSLKPEDTAVYYCNADWKSYRGPKFDYWGQGTQVTVSS | low polyreactivity
QDQLEESGGGLVQAGGSLRLSCAATGITFSSNAMGWYRQAPGKERELVAAISWSGGSTYYADSVKGRFTISRDYAKNTVYLQMNSLKPEDTAVYYCNASKHNPYGGDYWGQGTQVTVSS | high polyreactivity
QDQLGDSGGGLVQAGGSLRLSCAASGFTFGKYAMGWYRQAPGKERELVAAISWSGASTYYADSVKGRFTISRDNAMNTVYLQMNSLKAEDTALYYCAKRDYSYPWFRDYYYWGQGTLVTVSS | low polyreactivity
QDQLGDSGGGLVQAGGSLRLSCAASGSTYSVYTMGWYRQAPGKERELVAGITSNAGSTYYADSVKGRFTISRDNAMNTVYLEMNRLKPEDTAVYYCNADRWVRTTYDYWGQGTQVTVSS | high polyreactivity
QDQLVDSGAGLLQAGGSLRLSCAASGFTFYGYAMGWYRQAPGKERELVASISWSGGTTYYADSVKGRFTISRDNAKNTVYLQMNSLKPEDTAVYYCNAVRYRYGVFPYYYWGQGTQVTESS | high polyreactivity
QDQLVDSGGGLVQAGGSLRLICAASGRIFHCYAMGWYRQAPGKERELVAAIRASGGRTYYADSVKGRFTISRDNAKNTVYVQMNSLKPEDPAVYYCGADSVKYGGDYWGQGTQVTVSS | high polyreactivity
QDQLVDSGGGLVQAGGSLRLSCAASGFIFWYYAMGWYRQEPGKERELVAAITSGGNTNYADSVKGRFTISRDNAKNTFYLQMNSLKPEDTAVYYCATGRASGREHDSWGHGTQVTVSS | low polyreactivity
QDQLVDSGGGLVQAGGSLRLSCAASGRTFESYAMGWYRQAPGKERELVAAISYSGGSTYYADSVKGRFTISRDNAKNTVYLQMNSLKPEDTAVYYCAVRWRYKYDYWGQGTQVTVSS | high polyreactivity
QDQLVDSGGGLVQAGGSLRLSCAASGSTGTYMGWYRQAPGKERELVAAIDNICDNTYNADSVKGRFTISRDNAKNTVYLQMNSLIPEDSAVYYCAADYYVYYPWLFEYDYWGQGTQVTVSS | low polyreactivity
QDQLVDSGGGLVQAGGSLRLSCDASGIFDYYVMGWYRQAPGTERELVAAISKSVGSTYYADSVKGRFTISRDNAKNTVYLQMNSLKPEDTAVYYCAVENRYRFGYWGQGTQVTVSS | low polyreactivity
QDQLVDSGGGLVQAGGSLRLSSSASGLIFYKYAMGWYRQAPGKERELVAAISSSGGSTYYADSVKGRFTISRDTAKITVYLQMNSLKPDDTAVYYCAARTNRRGYNYWGQGTQVTVSS | high polyreactivity
QDQLVEAGGGLVQAGGSLRLSCAASGRIFYPDAMVWYRQAPGKERELVAAIRRSGVDTYYADSVKVRFTISRDNAKNTVSLQRNSLKPEDTAVYYCAADPYWFFPHYDSWGQGTQVTVSS | low polyreactivity
QDQLVESAAGLVQAGGSLRLSCAASGRTLYTNALGWYIQAPGKERELVAAISSDSSTKYADSVKGRFTISRDNAKNTVYLQMNSLKPEDTAVYYCARRGAFYYLYGHQYALYDYWGQGTQVTVSS | low polyreactivity

Sequence | polyreactivity (PSR sort gate)
QDQLVESAGGLVQAGGSLRLSCAASGRTFYFYTMGWYRQAPGKESELVATAITSGGSTNYADSVKGRFTISRDNAKNTVYLQMNSLKPEDTAVYYCAAVPTEFGNRLEYDYWGQGTQVTVSS | low polyreactivity
QDQLVESAGGLVQAGGSRRLSCAASGFTFYRNAMGCYRQAPGKERELVAAISITGGRTYYADSVKGRFTISRDNAKNTVYLQMNSLIPEDTAVYYCAKDRQRYGGDFDYWGQGTQLTVSS | high polyreactivity
QDQLVESCGGLVPAGGSLRLSCPASGPIFTYYTMGSYRQAPGKERELVAAITVRGGRTYYADSVKGRFTISRDNEKNTVYLQMNSLKPEDTAVYYCAARGLVRSYDYWGQGTQVSVSS | high polyreactivity
QDQLVESDAGLVQAGGSLRLSCAASGRIFLGNAMGRSIQPPGNERELVAAITYSGRSTYYSDSVKGRLTISRDNAKNTLYLQMNSLKPEDTAVYYCAARQYWTTDLPFQRYYYWGPGTQVTVSS | low polyreactivity
QDQLVESGACLVQAGGRLRLSCAASGFTFYYNAMGWYRQAPGKEREFVAAISRSGGSTTYADSVKGRFTISRDNAMNTGFLEMNSLKPEDTAVYYCNARRYRCKSYDYWGQGTQVTVSS | high polyreactivity
QDQLVESGGALVQAGRSLRLSCAASGIIYIYYAMGWYIQAPGKERELVAAISGSGDSTYYADSVKGRFTISRDNAKNTVYLQMNSLKPEDTAVYYCARRSPNPYSIYYYWGQGTQVTVSS | high polyreactivity
QDQLVESGGCLVQAGGSLRLRCAASGITFDRYTMGWYRQAPGKERELVAAIRSGGGTYYADSVKGRFTISRDNAKNTVYLQMNSLKPEDTAVYYCAATRVSPSQYLRYYYWGQGTQVTVSS | high polyreactivity
QDQLVESGGCLVQAGGSLRLSCAASGSTFGYNVMGRYRQAPGKERELVAAISSSGGSTYYADSVKGRFSISRDNAKNTVYLQMNSLKPEDTAVYYCARSTYPYRYGYWGQGTQVTVSS | high polyreactivity
QDQLVESGGCLVQAGGSLRLSCAASGSTFPIYAMGWYRQEPGKERELVAPITWNGGRTYYADSVKGRFTISRDNAKNTVYLQMNSLKPEDTAVYYCNALYYHNLEGNYWGQGTQVTVSS | high polyreactivity
QDQLVESGGCLVQAGLSLRLSCAASGSTFGPYAMGWYRQAPGKERELVADISGGSTNYADSVKGRFTISRDNAKNTVYLQLNSLKPEDTAFYYCATDDHVETVRRLYGDWGQGTQVTVSS | low polyreactivity
QDQLVESGGGFVQAGGSLRLSCAASGSIFLINAMGWYRQAPGKERELVAAISWRGGTTYYADSVKGRFTISRDNAKNSVYLQLNSLKPEDTAVYYCAAYGGRFRGPTRYDYWVQGTQVTVSS | high polyreactivity
QDQLVESGGGIVQAGGSIRLSCAASGNTFGWYAMGWYRKAPGKERELVASISSSGSTNYADSVKGRFTISRDNAKNTVYLQMNSLKPEDTAVYYSNADLTQYLGPVYEYVYWGQGTQVTVSS | low polyreactivity
QDQLVESGGGIVQAGGSLRLSCAASGFTFFANTMGWSRQAPGKERELVAVISSTVGYTYYADSVKGRFTISRDNAKNTVYLQMNSLKPEDTAVYYCAAKSIYDGFPYYLFDYWGQGSQVTVSS | high polyreactivity
QDQLVESGGGIVQAGGSLRLSCAASGSTIFYYAMGWYRQAPGKERELVAASSQRGGSTRYADSVKGRFTISRDNAKNTVYLQINSLKPEDSAVYYCAAARSPYKYSYWGQGTQVTVSS | high polyreactivity
QDQLVESGGGIVQAGGSLRLSCAASGSTIPSYAMGWYRQAPGKERELVASITYSDGTTRYADSVKGRFTISRDNAKNTVCLQMNRLKPVDTAVYYCNAVYDREGMDYWGQGTQVTVSS | low polyreactivity
QDQLVESGGGLDQAGGSLRLSGAASGGILPRYAMGWYRQAPGKERELVAGITRGGSTYYADSVKGRFSISRDNAKNTVYLQMNSLKPEDTAVYYCAKYGYQTGIFYYWGQGTQVTVSS | high polyreactivity
QDQLVESGGGLFQAGGSLRLSCAASGSIFGHYAMGWYRQAPGKERELVAAISWRGGSTYYADSVKGRFTISRDNAKNTVYIQMNSLKPEDTAVYYCAADRWDKAYDYWGQVTQVTVSS | low polyreactivity
QDQLVESGGGLFQEGGSLRLSCSASGSTFWVNTIRWYRQAPGKATELVADISSGGNTYYAHSVKGRFTISRDNAKNTVYLQMNSLKTEDTAVYYCNADPFTRWVIRDDYGGQGTQVTVSS | low polyreactivity
QDQLVESGGGLLQAGGSLRLSCASSGSIFANYVMGWYRQAPGKEREYFAGISRSGGSTYYADSVKGRFKISRDNAKNTVYLQMTSLKPEDTAVYYCNAGAGQRVSGHSFEYWGQGTQVTVSS | high polyreactivity
QDQLVESGGGLVHAGGSLRLSCAASGRTFFVYAMGWYRHAPGKEREMVANINQGGGSTSYADSVKGRFTISRDNAKNNVYLQMNSLKPEDTAVYYCNADHYGIGYDPVPLGFVGYDYWGQGTQVTVSS | low polyreactivity
QDQLVESGGGLVPAAGSLRLSCASSGFSFRRNAMGCYRQAPGKEREFVAGITSGGSTYYADSVKGRFTISRDNAKNTVYLLLNSLKPEDTAVYFCAATYRRRYGYWGQGTQVTVSS | high polyreactivity
